Laboratory results from patent US20050064507.

Assays:
[1] = test system: T1, peptide EEAEHKATKARLADK (SEQ ID NO:75)
T1 sequence: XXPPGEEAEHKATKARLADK

[2] = test system: T2, peptide ENLRRVATDRRHLGH (SEQ ID NO:50)
T2 sequence: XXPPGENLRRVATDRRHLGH

[3] = test system: T3, peptide KLAVGRHSFSRRSGV (SEQ ID NO:21)
T3 sequence: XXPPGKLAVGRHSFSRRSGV

[4] = test system: T4, MLK3 peptide HVRRRRGTFKRSKLRARD (SEQ ID NO:76)
T4 sequence: HVRRRRGTFKRSKLRARD

[5] = test system: T5, CHRM1 peptide RKIPKRPGSVHRTPSRQ (SEQ ID NO:83)
T5 sequence: RKIPKRPGSVHRTPSRQ

[6] = test system: T6, p164-RhoGEF peptide PRLIRRGSKKRPAR (SEQ ID NO:82)
T6 sequence: PRLIRRGSKKRPAR

[7] = test system: T7, peptide EGGDRRASGRRK (SEQ ID NO:34)
T7 sequence: XXPPGEGGDRRASGRRK

[8] = test system: T8, peptide HVRRRRGTFKRSKLRARD (SEQ ID NO:1)
T8 sequence: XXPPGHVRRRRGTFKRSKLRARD

[9] = test system: T9, NCF1 peptide GAPPRRSSIRNAH (SEQ ID NO:101)
T9 sequence: GAPPRRSSIRNAH

[10] = test system: T10, peptide GENVLKKSMKSRVKG (SEQ ID NO:36)
T10 sequence: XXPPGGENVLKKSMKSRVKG

[11] = test system: T11, ANK1 peptide AQIVKRASLKRGKQ (SEQ ID NO:90)
T11 sequence: AQIVKRASLKRGKQ

[12] = test system: T12, peptide VDNILKKSNKKLEEL (SEQ ID NO:61)
T12 sequence: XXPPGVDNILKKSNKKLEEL

[13] = test system: T13, peptide AVNSRRRAGQKKK (SEQ ID NO:48)
T13 sequence: XXPPGAVNSRRRAGQKKK

[14] = test system: T14, PRKCA peptide RFARKGSLRQKNV (SEQ ID NO:85)
T14 sequence: RFARKGSLRQKNV

[15] = test system: T15, peptide AGWRKKTSFRKPKED (SEQ ID NO:17)
T15 sequence: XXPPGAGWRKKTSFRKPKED

[16] = test system: T16, peptide WKGKRRSKARKKRK (SEQ ID NO:13)
T16 sequence: XXPPGWKGKRRSKARKKRK

[17] = test system: T17, PARIS1 peptide EYLERRASRRRAV (SEQ ID NO:130)
T17 sequence: EYLERRASRRRAV

[18] = test system: T18, MARCKS peptide KKRFSFKKSFKLSGFSFKKN (SEQ ID NO:123)
T18 sequence: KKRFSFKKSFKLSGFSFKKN

[19] = test system: T19, peptide PRLIRRGSKKRPAR (SEQ ID NO:6)
T19 sequence: XXPPGPRLIRRGSKKRPAR

[20] = test system: T20, EBNA1BP2 peptide KRPGKKGSNKRPGKR (SEQ ID NO:112)
T20 sequence: KRPGKKGSNKRPGKR

[21] = test system: T21, peptide RRRQKRRTGALVLSRGGKR (SEQ ID NO:71)
T21 sequence: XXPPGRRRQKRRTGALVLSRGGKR

[22] = test system: T22, peptide LALTARESSVRSGGAG (SEQ ID NO:69)
T22 sequence: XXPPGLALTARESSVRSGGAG

[23] = test system: T23, peptide KKRKKKSSKSLAHA (SEQ ID NO:27)
T23 sequence: XXPPGKKRKKKSSKSLAHA

[24] = test system: T24, peptide EYLERRASRRRAV (SEQ ID NO:14)
T24 sequence: XXPPGEYLERRASRRRAV

[25] = test system: T25, MARCKS peptide KKRFSFKKSFKLSGFSFKKN (SEQ ID NO:119)
T25 sequence: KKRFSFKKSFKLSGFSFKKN

[26] = test system: T26, peptide ALRRPSLRREADD (SEQ ID NO:26)
T26 sequence: XXPPGALRRPSLRREADD

[27] = test system: T27, DGKZ peptide KKKKRASFKRKSSKKG (SEQ ID NO:77)
T27 sequence: KKKKRASFKRKSSKKG

[28] = test system: T28, ARHGAP6 peptide SAQITIPKDGQKRKKSLRKK (SEQ ID NO:156)
T28 sequence: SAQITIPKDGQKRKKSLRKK

[29] = test system: T29, NIK peptide WKGKRRSKARKKRK (SEQ ID NO:131)
T29 sequence: WKGKRRSKARKKRK

[30] = test system: T30, slp4 peptide TYLLPDKSRQGKRKTSIKRD (SEQ ID NO:153)
T30 sequence: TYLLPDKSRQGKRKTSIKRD

[31] = test system: T31, peptide ALRAPKPTLRYFTTERF (SEQ ID NO:64)
T31 sequence: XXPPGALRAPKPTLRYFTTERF

[32] = test system: T32, NF1 peptide SQVQKQRSAGSFKRNSIKKI (SEQ ID NO:127)
T32 sequence: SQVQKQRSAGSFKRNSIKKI

[33] = test system: T33, cytohesin-2 peptide VDPFYEMLAARKKRISVKKK (SEQ ID NO:150)
T33 sequence: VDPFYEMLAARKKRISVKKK

[34] = test system: T34, peptide LTDPKEDPIYDEPEGLAPVPG (SEQ ID NO:72)
T34 sequence: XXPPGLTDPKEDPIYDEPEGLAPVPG

[35] = test system: T35, peptide IDYYKKTTNGRLPVK (SEQ ID NO:73)
T35 sequence: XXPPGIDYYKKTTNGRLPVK

[36] = test system: T36, splicing factor, arginine/serine-rich 4 peptide RSRSRSRSKSKDKRKSRKRS (SEQ ID NO:134)
T36 sequence: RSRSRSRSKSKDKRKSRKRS

[37] = test system: T37, peptide GAPPRRSSIRNAH (SEQ ID NO:20)
T37 sequence: XXPPGGAPPRRSSIRNAH

[38] = test system: T38, gravin peptide KKFFTQGWAGWRKKTSFRKP (SEQ ID NO:154)
T38 sequence: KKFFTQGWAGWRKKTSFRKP

[39] = test system: T39, ARHGAP6 peptide DGQKRKKSLRKKLD (SEQ ID NO:92)
T39 sequence: DGQKRKKSLRKKLD

[40] = test system: T40, plectin peptide PLKEKKRERKTSSKSSVRKR (SEQ ID NO:125)
T40 sequence: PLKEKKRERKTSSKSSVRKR

Substance: PKC-delta
- in vitro phosphorylation (% of best substrate) [1]: 0
- in vitro phosphorylation (% of best substrate) [2]: 2
- in vitro phosphorylation (% of best substrate) [3]: 12
- in vitro phosphorylation (% of best substrate) [4]: 100
- in vitro phosphorylation (% of best substrate) [5]: 38
- in vitro phosphorylation (% of best substrate) [6]: 40
- in vitro phosphorylation (% of best substrate) [7]: 5
- in vitro phosphorylation (% of best substrate) [8]: 100
- in vitro phosphorylation (% of best substrate) [9]: 13
- in vitro phosphorylation (% of best substrate) [10]: 4
- in vitro phosphorylation (% of best substrate) [11]: 32
- in vitro phosphorylation (% of best substrate) [12]: 1
- in vitro phosphorylation (% of best substrate) [13]: 2
- in vitro phosphorylation (% of best substrate) [14]: 34
- in vitro phosphorylation (% of best substrate) [15]: 17
- in vitro phosphorylation (% of best substrate) [16]: 22
- in vitro phosphorylation, 1 uM peptide (% of best substrate) [17]: 46
- in vitro phosphorylation, 10 uM peptide (% of best substrate) [17]: 20
- in vitro phosphorylation, 1 uM peptide (% of best substrate) [18]: 45
- in vitro phosphorylation, 10 uM peptide (% of best substrate) [18]: 22
- in vitro phosphorylation (% of best substrate) [19]: 40
- in vitro phosphorylation (% of best substrate) [20]: 8
- in vitro phosphorylation (% of best substrate) [21]: 1
- in vitro phosphorylation (% of best substrate) [22]: 1
- in vitro phosphorylation (% of best substrate) [23]: 8
- in vitro phosphorylation (% of best substrate) [24]: 20
- in vitro phosphorylation, 1 uM peptide (% of best substrate) [25]: 42
- in vitro phosphorylation, 10 uM peptide (% of best substrate) [25]: 16
- in vitro phosphorylation (% of best substrate) [26]: 9
- in vitro phosphorylation (% of best substrate) [27]: 76
- in vitro phosphorylation, 1 uM peptide (% of best substrate) [28]: 29
- in vitro phosphorylation, 10 uM peptide (% of best substrate) [28]: 31
- in vitro phosphorylation, 1 uM peptide (% of best substrate) [29]: 38
- in vitro phosphorylation, 10 uM peptide (% of best substrate) [29]: 29
- in vitro phosphorylation, 1 uM peptide (% of best substrate) [30]: 32
- in vitro phosphorylation, 10 uM peptide (% of best substrate) [30]: 26
- in vitro phosphorylation (% of best substrate) [31]: 1
- in vitro phosphorylation, 1 uM peptide (% of best substrate) [32]: 52
- in vitro phosphorylation, 10 uM peptide (% of best substrate) [32]: 33
- in vitro phosphorylation, 1 uM peptide (% of best substrate) [33]: 34
- in vitro phosphorylation, 10 uM peptide (% of best substrate) [33]: 20
- in vitro phosphorylation (% of best substrate) [34]: 0
- in vitro phosphorylation (% of best substrate) [35]: 0
- in vitro phosphorylation, 1 uM peptide (% of best substrate) [36]: 44
- in vitro phosphorylation, 10 uM peptide (% of best substrate) [36]: 16
- in vitro phosphorylation (% of best substrate) [37]: 13
- in vitro phosphorylation, 1 uM peptide (% of best substrate) [38]: 26
- in vitro phosphorylation, 10 uM peptide (% of best substrate) [38]: 14
- in vitro phosphorylation (% of best substrate) [39]: 17
- in vitro phosphorylation, 1 uM peptide (% of best substrate) [40]: 46
- in vitro phosphorylation, 10 uM peptide (% of best substrate) [40]: 36
